For the experiment, the target named is Myr-GCN4-GFP. As to the kind of experiment: fluorescence correlation spectroscopy (FCS); GFP-tagged membrane control proteins in live cells, same instrument and illumination conditions; cell line not stated; median molecular brightness.

In turn, Myr-GCN4-GFP displayed a median molecular brightness of 746 cpsm.

(Values after article PMC5364462.)
